The record followed here is US20240425882.

In the series the target is T1, microtubule-associated protein EB2 (endogenous, mouse brain), Q8R001.
T1 chain: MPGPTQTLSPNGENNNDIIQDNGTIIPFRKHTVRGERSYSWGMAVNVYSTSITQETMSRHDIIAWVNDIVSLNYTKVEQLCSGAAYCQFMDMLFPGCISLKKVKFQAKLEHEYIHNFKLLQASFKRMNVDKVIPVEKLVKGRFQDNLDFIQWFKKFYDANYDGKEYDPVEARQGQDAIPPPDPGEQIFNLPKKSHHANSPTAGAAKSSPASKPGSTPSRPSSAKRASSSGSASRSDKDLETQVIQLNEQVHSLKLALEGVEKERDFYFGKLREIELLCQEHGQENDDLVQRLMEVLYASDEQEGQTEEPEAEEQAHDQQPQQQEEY

B1: human CDKL5, isoform 3 (protein)
chain: MKIPNIGNVMNKFEILGVVGEGAYGVVLKCRHKETHEIVAIKKFKDSEENEEVKETTLRELKMLRTLKQENIVELKEAFRRRGKLYLVFEYVEKNMLELLEEMPNGVPPEKVKSYIYQLIKAIHWCHKNDIVHRDIKPENLLISHNDVLKLCDFGFARNLSEGNNANYTEYVATRWYRSPELLLGAPYGKSVDMWSVGCILGELSDGQPLFPGESEIDQLFTIQKVLGPLPSEQMKLFYSNPRFHGLRFPAVNHPQSLERRYLGILNSVLLDLMKNLLKLDPADRYLTEQCLNHPTFQTQRLLDRSPSRNQAGKSTALQSHHRSNSKDIQNLSVGLPRADEGLPANESFLNGNLAGASLSPLHTKTYQASSQPGSTSKDLTNNNIPHLLSPKEAKSKTEFDFNIDPKPSEGPGTKYLKSNSRSQQNRHSFMESSQSKAGTLQPNEKQSRHSYIDTIPQSSRSPSYRTKAKSHGALSDSKSVSNLSEARAQIAEPSTSRYFPSSCLDLNSPTSPTPTRHSDTRTLLSPSGRNNRNEGTLDSRRTTTRHSKTMEELKLPEHMDSSHSHSLSAPHESFSYGLGYTSPFSSQQRPHRHSMYVTRDKVRAKGLDGSLSIGQGMAARANSLQLLSPQPGEQLPPEMTVARSSVKETSREGTSSFHTRQKSEGGVYHDPHSDDGTAPKENRHLYNDPVPRRVGSFYRVPSPRPDNSFHENNVSTRVSSLPSESSSGTNHSKRQPAFDPWKSPENISHSEQLKEKEKQGFFRSMKKKKKKSQTVPNSDSPDLLTLQKSIHSASTPSSRPKEWRPEKISDLQTQSQPLKSLRKLLHLSSASNHPASSDPRFQPLTAQQTKNSFSEIRIHPLSQASGGSSNIRQEPAPKGRPALQLPGQMDPGWHVSSVTRSATEGPSYSEQLGAKSGPNGHPYNRTNRSRMPNLNDLKETAL
On to B1, for which the “EB2 phosphorylation levels (Western blot, Cdkl5-ko mouse brain)” value (from here on “EB2 phosphorylation levels”) was “by isoforms three or 4 slightly lower compared to isoform 1”.

B2: human CDKL5, isoform 2 (protein)
chain: MKIPNIGNVMNKFEILGVVGEGAYGVVLKCRHKETHEIVAIKKFKDSEENEEVKETTLRELKMLRTLKQENIVELKEAFRRRGKLYLVFEYVEKNMLELLEEMPNGVPPEKVKSYIYQLIKAIHWCHKNDIVHRDIKPENLLISHNDVLKLCDFGFARNLSEGNNANYTEYVATRWYRSPELLLGAPYGKSVDMWSVGCILGELSDGQPLFPGESEIDQLFTIQKVLGPLPSEQMKLFYSNPRFHGLRFPAVNHPQSLERRYLGILNSVLLDLMKNLLKLDPADRYLTEQCLNHPTFQTQRLLDRSPSRSAKRKPYHVESSTLSNRNQAGKSTALQSHHRSNSKDIQNLSVGLPRADEGLPANESFLNGNLAGASLSPLHTKTYQASSQPGSTSKDLTNNNIPHLLSPKEAKSKTEFDFNIDPKPSEGPGTKYLKSNSRSQQNRHSFMESSQSKAGTLQPNEKQSRHSYIDTIPQSSRSPSYRTKAKSHGALSDSKSVSNLSEARAQIAEPSTSRYFPSSCLDLNSPTSPTPTRHSDTRTLLSPSGRNNRNEGTLDSRRTTTRHSKTMEELKLPEHMDSSHSHSLSAPHESFSYGLGYTSPFSSQQRPHRHSMYVTRDKVRAKGLDGSLSIGQGMAARANSLQLLSPQPGEQLPPEMTVARSSVKETSREGTSSFHTRQKSEGGVYHDPHSDDGTAPKENRHLYNDPVPRRVGSFYRVPSPRPDNSFHENNVSTRVSSLPSESSSGTNHSKRQPAFDPWKSPENISHSEQLKEKEKQGFFRSMKKKKKKSQTTDSTNGENPSIKKSLFPLFNSKNHLKHSSSLKKLPVVTPPMVPNSDSPDLLTLQKSIHSASTPSSRPKEWRPEKISDLQTQSQPLKSLRKLLHLSSASNHPASSDPRFQPLTAQQTKNSFSEIRIHPLSQASGGSSNIRQEPAPKGRPALQLPGQMDPGWHVSSVTRSATEGPSYSEQLGAKSGPNGHPYNRTNRSRMPNLNDLKETAL
Consider B2, for which the “EB2 phosphorylation levels” value is on record as “EB2 phosphorylation levels generated by isoform 2 were slightly higher ... compared to isoform 1”.

B3: human CDKL5, isoform 4 (protein)
chain: MKIPNIGNVMNKFEILGVVGEGAYGVVLKCRHKETHEIVAIKKFKDSEENEEVKETTLRELKMLRTLKQENIVELKEAFRRRGKLYLVFEYVEKNMLELLEEMPNGVPPEKVKSYIYQLIKAIHWCHKNDIVHRDIKPENLLISHNDVLKLCDFGFARNLSEGNNANYTEYVATRWYRSPELLLGAPYGKSVDMWSVGCILGELSDGQPLFPGESEIDQLFTIQKVLGPLPSEQMKLFYSNPRFHGLRFPAVNHPQSLERRYLGILNSVLLDLMKNLLKLDPADRYLTEQCLNHPTFQTQRLLDRSPSRNQAGKSTALQSHHRSNSKDIQNLSVGLPRADEGLPANESFLNGNLAGASLSPLHTKTYQASSQPGSTSKDLTNNNIPHLLSPKEAKSKTEFDFNIDPKPSEGPGTKYLKSNSRSQQNRHSFMESSQSKAGTLQPNEKQSRHSYIDTIPQSSRSPSYRTKAKSHGALSDSKSVSNLSEARAQIAEPSTSRYFPSSCLDLNSPTSPTPTRHSDTRTLLSPSGRNNRNEGTLDSRRTTTRHSKTMEELKLPEHMDSSHSHSLSAPHESFSYGLGYTSPFSSQQRPHRHSMYVTRDKVRAKGLDGSLSIGQGMAARANSLQLLSPQPGEQLPPEMTVARSSVKETSREGTSSFHTRQKSEGGVYHDPHSDDGTAPKENRHLYNDPVPRRVGSFYRVPSPRPDNSFHENNVSTRVSSLPSESSSGTNHSKRQPAFDPWKSPENISHSEQLKEKEKQGFFRSMKKKKKKSQTTDSTNGENPSIKKSLFPLFNSKNHLKHSSSLKKLPVVTPPMVPNSDSPDLLTLQKSIHSASTPSSRPKEWRPEKISDLQTQSQPLKSLRKLLHLSSASNHPASSDPRFQPLTAQQTKNSFSEIRIHPLSQASGGSSNIRQEPAPKGRPALQLPGQMDPGWHVSSVTRSATEGPSYSEQLGAKSGPNGHPYNRTNRSRMPNLNDLKETAL
With B3, the “EB2 phosphorylation levels” value was “by isoforms three or 4 slightly lower compared to isoform 1”.

B4: human cyclin-dependent kinase-like 5 (CDKL5), isoform 1 (protein)
chain: MKIPNIGNVMNKFEILGVVGEGAYGVVLKCRHKETHEIVAIKKFKDSEENEEVKETTLRELKMLRTLKQENIVELKEAFRRRGKLYLVFEYVEKNMLELLEEMPNGVPPEKVKSYIYQLIKAIHWCHKNDIVHRDIKPENLLISHNDVLKLCDFGFARNLSEGNNANYTEYVATRWYRSPELLLGAPYGKSVDMWSVGCILGELSDGQPLFPGESEIDQLFTIQKVLGPLPSEQMKLFYSNPRFHGLRFPAVNHPQSLERRYLGILNSVLLDLMKNLLKLDPADRYLTEQCLNHPTFQTQRLLDRSPSRSAKRKPYHVESSTLSNRNQAGKSTALQSHHRSNSKDIQNLSVGLPRADEGLPANESFLNGNLAGASLSPLHTKTYQASSQPGSTSKDLTNNNIPHLLSPKEAKSKTEFDFNIDPKPSEGPGTKYLKSNSRSQQNRHSFMESSQSKAGTLQPNEKQSRHSYIDTIPQSSRSPSYRTKAKSHGALSDSKSVSNLSEARAQIAEPSTSRYFPSSCLDLNSPTSPTPTRHSDTRTLLSPSGRNNRNEGTLDSRRTTTRHSKTMEELKLPEHMDSSHSHSLSAPHESFSYGLGYTSPFSSQQRPHRHSMYVTRDKVRAKGLDGSLSIGQGMAARANSLQLLSPQPGEQLPPEMTVARSSVKETSREGTSSFHTRQKSEGGVYHDPHSDDGTAPKENRHLYNDPVPRRVGSFYRVPSPRPDNSFHENNVSTRVSSLPSESSSGTNHSKRQPAFDPWKSPENISHSEQLKEKEKQGFFRSMKKKKKKSQTVPNSDSPDLLTLQKSIHSASTPSSRPKEWRPEKISDLQTQSQPLKSLRKLLHLSSASNHPASSDPRFQPLTAQQTKNSFSEIRIHPLSQASGGSSNIRQEPAPKGRPALQLPGQMDPGWHVSSVTRSATEGPSYSEQLGAKSGPNGHPYNRTNRSRMPNLNDLKETAL
For the protein B4, the “EB2 phosphorylation (Cdkl5(D471fs) mouse brain)” value was “showed robust hCDKL5 protein expression and EB2 phosphorylation 3 months later”; the “EB2 phosphorylation (Cdkl5(R59X) mouse brain)” value was “showed robust hCDKL5 protein expression and EB2 phosphorylation 3 months later”; the “ability to phosphorylate EB2 (pS222 EB2 Western blot, mouse brain)” value is reported as “CDKL5 was fully active, as determined by its ability to phosphorylate its endogenous target EB2 protein”; the “kinase activity, blotting for phosphorylated EB2 (Cdkl5-ko mouse brain, 3 months after AAV)” value is “human CDKL5 showed robust kinase activity when blotting for phosphorylated EB2 protein”. In addition, the “substrate phosphorylation by CDKL5 (phospho-EB2 levels, pS222/total EB2, Western blot, brain)” value was “the observed reduction in substrate phosphorylation by CDKL5 (as determined by phospho-EB2 levels) ... was restored to wild type levels”.
